Test results: the supplement of paper PMC5998384

Tests used:
HeLa Kyoto [1] = experiment: thermal stability score vs G1/S (z-score of summed log2 fold changes over temperatures); higher = more thermally stable than in G1/S
HeLa Kyoto [2] = experiment: melting temperature (median over replicates), in situ; higher = more thermally stable
HeLa Kyoto [3] = experiment: solubility in G1/S (NP-40 vs SDS abundance) (log2 ratio); higher = more soluble; details: cell cycle stage: G1/S
HeLa Kyoto [4] = experiment: solubility change mitosis vs G1/S (difference of NP-40 vs SDS log2 ratios) (log2 ratio difference); higher = more soluble in mitosis
[5] = cell cycle stage: early G1 (4.5 h after nocodazole release)
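Wherever melting temperature (median over replicates), in situ is given: HeLa Kyoto cells synchronized by double thymidine or nocodazole block, proteins quantified by TMT10plex mass spectrometry, three independent biological replicates.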
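Wherever solubility change mitosis vs G1/S (difference of NP-40 vs SDS log2 ratios) is given: synchronized HeLa Kyoto cells (double thymidine block for G1/S, nocodazole release for mitosis), protein amounts in NP-40 versus SDS lysates quantified by mass spectrometry, three biological replicates.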
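Wherever solubility in G1/S (NP-40 vs SDS abundance) is given: HeLa Kyoto cells arrested at G1/S by double thymidine block, proteins quantified by TMT10plex mass spectrometry in mild NP-40 versus SDS extracts, three biological replicates.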
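Wherever thermal stability score vs G1/S (z-score of summed log2 fold changes over temperatures) is given: synchronized HeLa Kyoto cells, proteins quantified by TMT10plex mass spectrometry, three biological replicates, mitosis taken 0.5 h after nocodazole release, G1/S directly after double thymidine block.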

Row | Sequence | thermal stability score (HeLa Kyoto [1]; [5]) | thermal stability score (HeLa Kyoto [1]; cell cycle stage: mitosis) | melting temperature (HeLa Kyoto [2]; cell cycle stage: G1/S) | melting temperature (HeLa Kyoto [2]; cell cycle stage: mitosis) | solubility in G1/S (log2) (HeLa Kyoto [3]) | solubility change mitosis (log2) (HeLa Kyoto [4])
1 | MARSPGRAYALLLLLICFNVGSGLHLQVLSTRNENKLLPKHPHLVRQKRAWITAPVALREGEDLSKKNPIAKIHSDLAEERGLKITYKYTGKGITEPPFGIFVFNKDTGELNVTSILDREETPFFLLTGYALDARGNNVEKPLELRIKVLDINDNEPVFTQDVFVGSVEELSAAHTLVMKINATDADEPNTLNSKISYRIVSLEPAYPPVFYLNKDTGEIYTTSVTLDREEHSSYTLTVEARDGNGEVTDKPVKQAQVQIRILDVNDNIPVVENKVLEGMVEENQVNVEVTRIKVFDADEIGSDNWLANFTFASGNEGGYFHIETDAQTNEGIVTLIKEVDYEEMKNLDFSVIVANKAAFHKSIRSKYKPTPIPIKVKVKNVKEGIHFKSSVISIYVSESMDRSSKGQIIGNFQAFDEDTGLPAHARYVKLEDRDNWISVDSVTSEIKLAKLPDFESRYVQNGTYTVKIVAISEDYPRKTITGTVLINVEDINDNCPTLIEPVQTICHDAEYVNVTAEDLDGHPNSGPFSFSVIDKPPGMAEKWKIARQESTSVLLQQSEKKLGRSEIQFLISDNQGFSCPEKQVLTLTVCECLHGSGCREAQHDSYVGLGPAAIALMILAFLLLLLVPLLLLMCHCGKGAKGFTPIPGTIEMLHPWNNEGAPPEDKVVPSFLPVDQGGSLVGRNGVGGMAKEATMKGSSSASIVKGQHEMSEMDGRWEEHRSLLSGRATQFTGATGAIMTTETTKTARATGASRDMAGAQAAAVALNEEFLRNYFTDKAASYTEEDENHTAKDCLLVYSQEETESLNASIGCCSFIEGELDDRFLDDLGLKFKTLAEVCLGQKIDINKEIEQRQKPATETSMNTASHSLCEQTMVNSENTYSSGSSFPVPKSLQEANAEKVTQEIVTERSVSSRQAQKVATPLPDPMASRNVIATETSYVTGSTMPPTTVILGPSQPQSLIVTERVYAPASTLVDQPYANEGTVVVTERVIQPHGGGSNPLEGTQHLQDVPYVMVRERESFLAPSSGVQPTLAMPNIAVGQNVTVTERVLAPASTLQSSYQIPTENSMTARNTTVSGAGVPGPLPDFGLEESGHSNSTITTSSTRVTKHSTVQHSYS [DSG2] | -1.15 | -1.27 | 55.1 °C | 56 °C | -0.504 | -0.164
2 | MARSVRVLVDMDGVLADFEAGLLRGFRRRFPEEPHVPLEQRRGFLAREQYRALRPDLADKVASVYEAPGFFLDLEPIPGALDAVREMNDLPDTQVFICTSPLLKYHHCVGEKYRWVEQHLGPQFVERIILTRDKTVVLGDLLIDDKDTVRGQEETPSWEHILFTCCHNRHLVLPPTRRRLLSWSDNWREILDSKRGAAQRE [NT5C] | -0.241 | -1.24 | 55.9 °C | 57 °C | 0.0484 | -0.172
3 | MARVAWGLLWLLLGSAGAQYEKYSFRGFPPEDLMPLAAAYGHALEQYEGESWRESARYLEAALRLHRLLRDSEAFCHANCSGPAPAAKPDPDGGRADEWACELRLFGRVLERAACLRRCKRTLPAFQVPYPPRQLLRDFQSRLPYQYLHYALFKANRLEKAVAAAYTFLQRNPKHELTAKYLNYYQGMLDVADESLTDLEAQPYEAVFLRAVKLYNSGDFRSSTEDMERALSEYLAVFARCLAGCEGAHEQVDFKDFYPAIADLFAESLQCKVDCEANLTPNVGGYFVDKFVATMYHYLQFAYYKLNDVRQAARSAASYMLFDPKDSVMQQNLVYYRFHRARWGLEEEDFQPREEAMLYHNQTAELRELLEFTHMYLQSDDEMELEETEPPLEPEDALSDAEFEGEGDYEEGMYADWWQEPDAKGDEAEAEPEPELA [P3H4] | 0.153 | 0.25 | 53.2 °C | 53.6 °C | -0.293 | -0.0349
4 | MASACGAPGPGGALGSQAPSWYHRDLSRAAAEELLARAGRDGSFLVRDSESVAGAFALCVLYQKHVHTYRILPDGEDFLAVQTSQGVPVRRFQTLGELIGLYAQPNQGLVCALLLPVEGEREPDPPDDRDASDGEDEKPPLPPRSGSTSISAPTGPSSPLPAPETPTAPAAESAPNGLSTVSHDYLKGSYGLDLEAVRGGASHLPHLTRTLATSCRRLHSEVDKVLSGLEILSKVFDQQSSPMVTRLLQQQNLPQTGEQELESLVLKLSVLKDFLSGIQKKALKALQDMSSTAPPAPQPSTRKAKTIPVQAFEVKLDVTLGDLTKIGKSQKFTLSVDVEGGRLVLLRRQRDSQEDWTTFTHDRIRQLIKSQRVQNKLGVVFEKEKDRTQRKDFIFVSARKREAFCQLLQLMKNKHSKQDEPDMISVFIGTWNMGSVPPPKNVTSWFTSKGLGKTLDEVTVTIPHDIYVFGTQENSVGDREWLDLLRGGLKELTDLDYRPIAMQSLWNIKVAVLVKPEHENRISHVSTSSVKTGIANTLGNKGAVGVSFMFNGTSFGFVNCHLTSGNEKTARRNQNYLDILRLLSLGDRQLNAFDISLRFTHLFWFGDLNYRLDMDIQEILNYISRKEFEPLLRVDQLNLEREKHKVFLRFSEEEISFPPTYRYERGSRDTYAWHKQKPTGVRTNVPSWCDRILWKSYPETHIICNSYGCTDDIVTSDHSPVFGTFEVGVTSQFISKKGLSKTSDQAYIEFESIEAIVKTASRTKFFIEFYSTCLEEYKKSFENDAQSSDNINFLKVQWSSRQLPTLKPILADIEYLQDQHLLLTVKSMDGYESYGECVVALKSMIGSTAQQFLTFLSHRGEETGNIRGSMKVRVPTERLGTRERLYEWISIDKDEAGAKSKAPSVSRGSQEPRSGSRKPAFTEASCPLSRLFEEPEKPPPTGRPPAPPRAAPREEPLTPRLKPEGAPEPEGVAAPPPKNSFNNPAYYVLEGVPHQLLPPEPPSPARAPVPSATKNKVAITVPAPQLGHHRHPRVGEGSSSDEESGGTLPPPDFPPPPLPDSAIFLPPSLDPLPGPVVRGRGGAEARGPPPPKAHPRPPLPPGPSPASTFLGEVASGDDRSCSVLQMAKTLSEVDYAPAGPARSALLPGPLELQPPRGLPSDYGRPLSFPPPRIRESIQEDLAEEAPCLQGGRASGLGEAGMSAWLRAIGLERYEEGLVHNGWDDLEFLSDITEEDLEEAGVQDPAHKRLLLDTLQLSK [INPPL1] | 0.612 | 2.56 | 48.6 °C | 48.6 °C | 0.0138 | -0.119
5 | MASESDTEEFYDAPEDVHLGGGYPVGSPGKVGLSTFKETENTAYKVGNESPVQELKQDVSKKIIESIIEESQKVLQLEDDSLDSKGKELSDQATASPIVARTDLSNIPGLLAIDQVLPEESQKAESQNTFEETELELKKCFPSDETCEKPVDETTKLTQTSSTEQLNVLETETEVLNKEAVEVKGGGDVLEPVSSDSLSTKDFAAVEEVAPAKPPRHLTPEPDIVASTKKPVPARPPPPTNFPPPRPPPPSRPAPPPRKRKSELEFETLKTPDIDVPKENITSDSLLTASMASESTVKDSQPSLDLASATSGDKIVTAQENGKAPDGQTVAGEVMGPQRPRSNSGRELTDEEILASVMIKNLDTGEEIPLSLAEEKLPTGINPLTLHIMRRTKEYVSNDAAQSDDEEKLQSQPTDTDGGRLKQKTTQLKKFLGKSVKRAKHLAEEYGERAINKVKSVRDEVFHTDQDDPSSSDDEGMPYTRPVKFKAAHGFKGPYDFDQIKVVQDLSGEHMGAVWTMKFSHCGRLLASAGQDNVVRIWALKNAFDYFNNMRMKYNTEGRVSPSPSQESLSSSKSDTDTGVCSGTDEDPDDKNAPFRQRPFCKYKGHTADLLDLSWSKNYFLLSSSMDKTVRLWHISRRECLCCFQHIDFVTAIAFHPRDDRYFLSGSLDGKLRLWNIPDKKVALWNEVDGQTKLITAANFCQNGKYAVIGTYDGRCIFYDTEHLKYHTQIHVRSTRGRNKVGRKITGIEPLPGENKILVTSNDSRIRLYDLRDLSLSMKYKGYVNSSSQIKASFSHDFTYLVSGSEDKYVYIWSTYHDLSKFTSVRRDRNDFWEGIKAHNAVVTSAIFAPNPSLMLSLDVQSEKSEGNEKSEDAEVLDATPSGIMKTDNTEVLLSADFTGAIKVFVNKRKNVS [WDR44] | -1.63 | -2.21 | 55.7 °C | 55.1 °C | -0.102 | -0.145
